Key:
[1] = compound: Cc1ncc(/C=C/P(=O)(O)O)c(C=O)c1O; experiment: (§1) Inhibition of recombinant mouse brain PDXP-mediated pyridoxal 5' phosphate hydrolysis expressed in Escherichia coli BL21 (DE3) cells assessed as enzyme Km at 0.1 mM preincubated for 4 mins followed by substrate addition measured after 2 mins
[2] = compound: Cc1ncc(/C=C/P(=O)(O)O)c(CO)c1O; experiment: as §1
[3] = compound: Cc1ncc(CCP(=O)(O)O)c(C=O)c1O; experiment: as §1
[4] = compound: Cc1ncc(CCP(=O)(O)O)c(CO)c1O; experiment: as §1
[5] = compound: Cc1ncc(/C=C/P(=O)(O)O)c(C=O)c1O; experiment: (§2) Inhibition of recombinant mouse brain PDXP-mediated pyridoxal 5' phosphate hydrolysis expressed in Escherichia coli BL21 (DE3) cells assessed as enzyme Vmax at 0.1 mM preincubated for 4 mins followed by substrate addition measured after 2 mins
[6] = compound: Cc1ncc(/C=C/P(=O)(O)O)c(CO)c1O; experiment: as §2
[7] = compound: Cc1ncc(CCP(=O)(O)O)c(C=O)c1O; experiment: as §2
[8] = compound: Cc1ncc(CCP(=O)(O)O)c(CO)c1O; experiment: as §2
[9] = compound: Cc1ncc(/C=C/P(=O)(O)O)c(C=O)c1O; experiment: (§3) Inhibition of recombinant mouse brain PDXP-mediated pyridoxal 5' phosphate hydrolysis expressed in Escherichia coli BL21 (DE3) cells assessed as enzyme Kcat at 0.1 mM preincubated for 4 mins followed by substrate addition measured after 2 mins
[10] = compound: Cc1ncc(/C=C/P(=O)(O)O)c(CO)c1O; experiment: as §3
[11] = compound: Cc1ncc(CCP(=O)(O)O)c(C=O)c1O; experiment: as §3
[12] = compound: Cc1ncc(CCP(=O)(O)O)c(CO)c1O; experiment: as §3
[13] = compound: Cc1ncc(/C=C/P(=O)(O)O)c(C=O)c1O; experiment: (§4) Inhibition of recombinant mouse brain PDXP-mediated pyridoxal 5' phosphate hydrolysis expressed in Escherichia coli BL21 (DE3) cells assessed as ratio of enzyme Kcat/Km at 0.1 mM preincubated for 4 mins followed by substrate addition measured after 2 mins
[14] = compound: Cc1ncc(/C=C/P(=O)(O)O)c(CO)c1O; experiment: as §4
[15] = compound: Cc1ncc(CCP(=O)(O)O)c(C=O)c1O; experiment: as §4
[16] = compound: Cc1ncc(CCP(=O)(O)O)c(CO)c1O; experiment: as §4
[17] = compound: Cc1ncc(/C=C/P(=O)(O)O)c(C=O)c1O; experiment: (§5) Inhibition of recombinant mouse brain PDXP-mediated pyridoxal 5' phosphate hydrolysis expressed in Escherichia coli BL21 (DE3) cells assessed as enzyme Km at 0.5 mM preincubated for 4 mins followed by substrate addition measured after 2 mins
[18] = compound: Cc1ncc(/C=C/P(=O)(O)O)c(CO)c1O; experiment: as §5
[19] = compound: Cc1ncc(CCP(=O)(O)O)c(C=O)c1O; experiment: as §5
[20] = compound: Cc1ncc(CCP(=O)(O)O)c(CO)c1O; experiment: as §5
[21] = compound: Cc1ncc(/C=C/P(=O)(O)O)c(C=O)c1O; experiment: (§6) Inhibition of recombinant mouse brain PDXP-mediated pyridoxal 5' phosphate hydrolysis expressed in Escherichia coli BL21 (DE3) cells assessed as enzyme Vmax at 0.5 mM preincubated for 4 mins followed by substrate addition measured after 2 mins
[22] = compound: Cc1ncc(/C=C/P(=O)(O)O)c(CO)c1O; experiment: as §6
[23] = compound: Cc1ncc(CCP(=O)(O)O)c(C=O)c1O; experiment: as §6
[24] = compound: Cc1ncc(CCP(=O)(O)O)c(CO)c1O; experiment: as §6
[25] = compound: Cc1ncc(/C=C/P(=O)(O)O)c(C=O)c1O; experiment: (§7) Inhibition of recombinant mouse brain PDXP-mediated pyridoxal 5' phosphate hydrolysis expressed in Escherichia coli BL21 (DE3) cells assessed as enzyme Kcat at 0.5 mM preincubated for 4 mins followed by substrate addition measured after 2 mins
[26] = compound: Cc1ncc(/C=C/P(=O)(O)O)c(CO)c1O; experiment: as §7
[27] = compound: Cc1ncc(CCP(=O)(O)O)c(C=O)c1O; experiment: as §7
[28] = compound: Cc1ncc(CCP(=O)(O)O)c(CO)c1O; experiment: as §7
[29] = compound: Cc1ncc(/C=C/P(=O)(O)O)c(C=O)c1O; experiment: (§8) Inhibition of recombinant mouse brain PDXP-mediated pyridoxal 5' phosphate hydrolysis expressed in Escherichia coli BL21 (DE3) cells assessed as ratio of enzyme Kcat/Km at 0.5 mM preincubated for 4 mins followed by substrate addition measured after 2 mins
[30] = compound: Cc1ncc(/C=C/P(=O)(O)O)c(CO)c1O; experiment: as §8
[31] = compound: Cc1ncc(CCP(=O)(O)O)c(C=O)c1O; experiment: as §8
[32] = compound: Cc1ncc(CCP(=O)(O)O)c(CO)c1O; experiment: as §8
[33] = compound: Cc1ncc(/C=C/P(=O)(O)O)c(C=O)c1O; experiment: (§9) Inhibition of recombinant mouse brain PDXP-mediated pyridoxal 5' phosphate hydrolysis expressed in Escherichia coli BL21 (DE3) cells assessed as enzyme Km at 1 mM preincubated for 4 mins followed by substrate addition measured after 2 mins
[34] = compound: Cc1ncc(/C=C/P(=O)(O)O)c(CO)c1O; experiment: as §9
[35] = compound: Cc1ncc(CCP(=O)(O)O)c(C=O)c1O; experiment: as §9
[36] = compound: Cc1ncc(CCP(=O)(O)O)c(CO)c1O; experiment: as §9
[37] = compound: Cc1ncc(/C=C/P(=O)(O)O)c(C=O)c1O; experiment: (§10) Inhibition of recombinant mouse brain PDXP-mediated pyridoxal 5' phosphate hydrolysis expressed in Escherichia coli BL21 (DE3) cells assessed as enzyme Vmax at 1 mM preincubated for 4 mins followed by substrate addition measured after 2 mins
[38] = compound: Cc1ncc(/C=C/P(=O)(O)O)c(CO)c1O; experiment: as §10
[39] = compound: Cc1ncc(CCP(=O)(O)O)c(C=O)c1O; experiment: as §10
[40] = compound: Cc1ncc(CCP(=O)(O)O)c(CO)c1O; experiment: as §10
[41] = compound: Cc1ncc(/C=C/P(=O)(O)O)c(C=O)c1O; experiment: (§11) Inhibition of recombinant mouse brain PDXP-mediated pyridoxal 5' phosphate hydrolysis expressed in Escherichia coli BL21 (DE3) cells assessed as enzyme Kcat at 1 mM preincubated for 4 mins followed by substrate addition measured after 2 mins
[42] = compound: Cc1ncc(/C=C/P(=O)(O)O)c(CO)c1O; experiment: as §11
[43] = compound: Cc1ncc(CCP(=O)(O)O)c(C=O)c1O; experiment: as §11
[44] = compound: Cc1ncc(CCP(=O)(O)O)c(CO)c1O; experiment: as §11
[45] = compound: Cc1ncc(/C=C/P(=O)(O)O)c(C=O)c1O; experiment: (§12) Inhibition of recombinant mouse brain PDXP-mediated pyridoxal 5' phosphate hydrolysis expressed in Escherichia coli BL21 (DE3) cells assessed as ratio of enzyme Kcat/Km at 1 mM preincubated for 4 mins followed by substrate addition measured after 2 mins
[46] = compound: Cc1ncc(/C=C/P(=O)(O)O)c(CO)c1O; experiment: as §12
[47] = compound: Cc1ncc(CCP(=O)(O)O)c(C=O)c1O; experiment: as §12
[48] = compound: Cc1ncc(CCP(=O)(O)O)c(CO)c1O; experiment: as §12
[49] = compound: Cc1ncc(/C=C/P(=O)(O)O)c(C=O)c1O; experiment: (§13) Inhibition of recombinant mouse brain PDXP-mediated pyridoxal 5' phosphate hydrolysis expressed in Escherichia coli BL21 (DE3) cells assessed as enzyme Km at 2 mM preincubated for 4 mins followed by substrate addition measured after 2 mins
[50] = compound: Cc1ncc(/C=C/P(=O)(O)O)c(CO)c1O; experiment: as §13
[51] = compound: Cc1ncc(CCP(=O)(O)O)c(C=O)c1O; experiment: as §13
[52] = compound: Cc1ncc(CCP(=O)(O)O)c(CO)c1O; experiment: as §13
[53] = compound: Cc1ncc(/C=C/P(=O)(O)O)c(C=O)c1O; experiment: (§14) Inhibition of recombinant mouse brain PDXP-mediated pyridoxal 5' phosphate hydrolysis expressed in Escherichia coli BL21 (DE3) cells assessed as enzyme Vmax at 2 mM preincubated for 4 mins followed by substrate addition measured after 2 mins
[54] = compound: Cc1ncc(/C=C/P(=O)(O)O)c(CO)c1O; experiment: as §14
[55] = compound: Cc1ncc(CCP(=O)(O)O)c(C=O)c1O; experiment: as §14
[56] = compound: Cc1ncc(CCP(=O)(O)O)c(CO)c1O; experiment: as §14
[57] = compound: Cc1ncc(/C=C/P(=O)(O)O)c(C=O)c1O; experiment: (§15) Inhibition of recombinant mouse brain PDXP-mediated pyridoxal 5' phosphate hydrolysis expressed in Escherichia coli BL21 (DE3) cells assessed as enzyme Kcat at 2 mM preincubated for 4 mins followed by substrate addition measured after 2 mins
[58] = compound: Cc1ncc(/C=C/P(=O)(O)O)c(CO)c1O; experiment: as §15
[59] = compound: Cc1ncc(CCP(=O)(O)O)c(C=O)c1O; experiment: as §15
[60] = compound: Cc1ncc(CCP(=O)(O)O)c(CO)c1O; experiment: as §15
[61] = compound: Cc1ncc(/C=C/P(=O)(O)O)c(C=O)c1O; experiment: (§16) Inhibition of recombinant mouse brain PDXP-mediated pyridoxal 5' phosphate hydrolysis expressed in Escherichia coli BL21 (DE3) cells assessed as ratio of enzyme Kcat/Km at 2 mM preincubated for 4 mins followed by substrate addition measured after 2 mins
[62] = compound: Cc1ncc(/C=C/P(=O)(O)O)c(CO)c1O; experiment: as §16
[63] = compound: Cc1ncc(CCP(=O)(O)O)c(C=O)c1O; experiment: as §16
[64] = compound: Cc1ncc(CCP(=O)(O)O)c(CO)c1O; experiment: as §16

B1: Chronophin (Mus musculus), P60487 (protein)
chain: MARCERLRGAALRDVLGQAQGVLFDCDGVLWNGERIVPGAPELLQRLARAGKNTLFVSNNSRRARPELALRFARLGFAGLRAEQLFSSALCAARLLRQRLSGPPDASGAVFVLGGEGLRAELRAAGLRLAGDPGEDPRVRAVLVGYDEQFSFSRLTEACAHLRDPDCLLVATDRDPWHPLSDGSRTPGTGSLAAAVETASGRQALVVGKPSPYMFQCITEDFSVDPARTLMVGDRLETDILFGHRCGMTTVLTLTGVSSLEEAQAYLTAGQRDLVPHYYVESIADLMEGLED
B1 was tested. Which Km [1] did it give?
Its Km is 78 µM.

What about the Km [2] of the same protein?
The Km was 44 µM.

What about the Km [3] of the same protein?
The Km was 72 µM.

What about the Km [4] of the same protein?
Its Km is 59 µM.

And the Vmax [5]?
The Vmax was 3580 nmol/min/mg.

And the Vmax [6]?
The Vmax was 3300 nmol/min/mg.

And the Vmax [7]?
Its Vmax is 3590 nmol/min/mg.

What about the Vmax [8] of the same protein?
The Vmax was 3740 nmol/min/mg.

What about the kcat [9] of the same protein?
Its kcat is 1.9 s⁻¹.

And the kcat [10]?
Its kcat is 1.8 s⁻¹.

What about the kcat [11] of the same protein?
Its kcat is 1.9 s⁻¹.

And the kcat [12]?
Its kcat is 2 s⁻¹.

What about the kcat/Km [13] of the same protein?
The kcat/Km was 2.4 ×10⁴ /s/M.

And the kcat/Km [14]?
Its kcat/Km is 4 ×10⁴ /s/M.

What about the kcat/Km [15] of the same protein?
The kcat/Km was 2.7 ×10⁴ /s/M.

And the kcat/Km [16]?
The kcat/Km was 3.3 ×10⁴ /s/M.

And the Km [17]?
The Km was 170 µM.

What about the Km [18] of the same protein?
Its Km is 77 µM.

And the Km [19]?
Its Km is 170 µM.

And the Km [20]?
The Km was 83 µM.

What about the Vmax [21] of the same protein?
The Vmax was 2990 nmol/min/mg.

And the Vmax [22]?
Its Vmax is 3230 nmol/min/mg.

What about the Vmax [23] of the same protein?
Its Vmax is 3280 nmol/min/mg.

And the Vmax [24]?
The Vmax was 3680 nmol/min/mg.

What about the kcat [25] of the same protein?
The kcat was 1.6 s⁻¹.

And the kcat [26]?
The kcat was 1.7 s⁻¹.

And the kcat [27]?
Its kcat is 1.7 s⁻¹.

What about the kcat [28] of the same protein?
The kcat was 2 s⁻¹.

And the kcat/Km [29]?
The kcat/Km was 0.9 ×10⁴ /s/M.

What about the kcat/Km [30] of the same protein?
The kcat/Km was 2.2 ×10⁴ /s/M.

What about the kcat/Km [31] of the same protein?
Its kcat/Km is 1 ×10⁴ /s/M.

And the kcat/Km [32]?
The kcat/Km was 2.4 ×10⁴ /s/M.

What about the Km [33] of the same protein?
Its Km is 248 µM.

What about the Km [34] of the same protein?
Its Km is 112 µM.

What about the Km [35] of the same protein?
Its Km is 197 µM.

What about the Km [36] of the same protein?
Its Km is 98 µM.

And the Vmax [37]?
Its Vmax is 2300 nmol/min/mg.

What about the Vmax [38] of the same protein?
The Vmax was 3150 nmol/min/mg.

What about the Vmax [39] of the same protein?
Its Vmax is 2620 nmol/min/mg.

What about the Vmax [40] of the same protein?
The Vmax was 3440 nmol/min/mg.

And the kcat [41]?
The kcat was 1.2 s⁻¹.

And the kcat [42]?
The kcat was 1.7 s⁻¹.

What about the kcat [43] of the same protein?
Its kcat is 1.4 s⁻¹.

And the kcat [44]?
Its kcat is 1.8 s⁻¹.

And the kcat/Km [45]?
The kcat/Km was 0.5 ×10⁴ /s/M.

And the kcat/Km [46]?
Its kcat/Km is 1.5 ×10⁴ /s/M.

What about the kcat/Km [47] of the same protein?
The kcat/Km was 0.7 ×10⁴ /s/M.

What about the kcat/Km [48] of the same protein?
The kcat/Km was 1.9 ×10⁴ /s/M.

What about the Km [49] of the same protein?
The Km was 224 µM.

And the Km [50]?
Its Km is 181 µM.

What about the Km [51] of the same protein?
The Km was 246 µM.

What about the Km [52] of the same protein?
The Km was 136 µM.

What about the Vmax [53] of the same protein?
The Vmax was 1640 nmol/min/mg.

What about the Vmax [54] of the same protein?
Its Vmax is 3070 nmol/min/mg.

And the Vmax [55]?
Its Vmax is 2130 nmol/min/mg.

And the Vmax [56]?
Its Vmax is 3150 nmol/min/mg.

What about the kcat [57] of the same protein?
Its kcat is 0.9 s⁻¹.

And the kcat [58]?
The kcat was 1.6 s⁻¹.

What about the kcat [59] of the same protein?
The kcat was 1.1 s⁻¹.

And the kcat [60]?
Its kcat is 1.7 s⁻¹.

And the kcat/Km [61]?
Its kcat/Km is 0.4 ×10⁴ /s/M.

And the kcat/Km [62]?
The kcat/Km was 0.9 ×10⁴ /s/M.

And the kcat/Km [63]?
Its kcat/Km is 0.5 ×10⁴ /s/M.

What about the kcat/Km [64] of the same protein?
Its kcat/Km is 1.2 ×10⁴ /s/M.
